T1: peptide 1 (human)
T1 construct: also called peptide 1 of mature GDF8
T1 peptide: DFGLDCDEHSTESRCCRY

T2: peptide 5 (human)
T2 construct: also called peptide 5 of mature GDF8
T2 peptide: CCTPTKMSPINMLYFNGK

T3: mature GDF8 from mouse serum (mouse, UniProt O08689 268-376)
T3 construct: mature; also called mouse serum mature GDF8
T3 sequence (looked up): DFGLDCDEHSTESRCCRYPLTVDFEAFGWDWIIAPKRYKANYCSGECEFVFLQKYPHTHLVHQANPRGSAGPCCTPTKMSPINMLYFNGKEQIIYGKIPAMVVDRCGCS

T4: mature GDF8 (human, UniProt O14793 267-375)
T4 construct: also called myostatin; mstn
T4 sequence: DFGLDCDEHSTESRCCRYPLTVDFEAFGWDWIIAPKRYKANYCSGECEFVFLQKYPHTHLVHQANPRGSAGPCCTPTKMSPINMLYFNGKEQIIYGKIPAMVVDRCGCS


Columns and labels:
peptide 1 = target: T1, peptide 1; test: peptide ELISA
Description: (§1) Eleven peptides were generated from mature GDF8 to test and localize antibody binding (See FIG. 6). Peptide ELISA was done on glutaraldehyde coated ELISA plates and on uncoated ELISA plates (NUNC-Immuno™ plate MaxiSorp™ surface, Nalge Nunc International, Cat. No. 439454). Glutaraldehyde coated plates were prepared by mixing 250 μl glutaraldehyde (50% w/v) with 50 ml deionized water and adding 200 μl of the solution into each well. Plates were incubated for at least 1 hour at room temperature. The glutaraldehyde was shaken out of the plate and smashed upside down on paper towels to remove all the liquid prior to use.
(§2) ELISA plates were coated with peptide at 1.0 μg/well/50 μl (in Sodium bicarbonate buffer, pH 9.6) for at least 4 hours, and then blocked with 200 μl blocker (1%BSA, 1%Ethanolamine pH 7.4) for minimum 4 hours. Plates were washed with PBST three times with 200 μl/well. 50 μl antibody (1 μg/ml in PBST, Phosphate-buffered saline (PBS) with 0.05% Tween-20) sample was added to the wells for 1 hour. Plates were then washed with PBST three times. 50 μl anti-human IgG-horseradish peroxidase(HRP) (Pierce, Cat# 31420) diluted in PBST is added for another hour. The wells were washed again with TBST three times, and then with deionized water twice. 50 μl ABTS (MOSS) was added for 5-20 minutes, and the signal was detected at 405 nm in a colormetric plate reader.

peptide 5 = target: T2, peptide 5; test: peptide ELISA
Description: as §1, §2

[1] = target: T3, mature GDF8 from mouse serum; test: immunoprecipitation from mouse serum, western blot
Description: An immunoprecipitation study was conducted to test the binding of myostatin antibodies to mature GDF8 from mouse serum. […] mouse serum (Rockland, Cat ## D208-00) was incubated with 20 μg myostatin antibodies for 16 hours at 4° C. Protein A Dynalbeads were added and incubated for 90 minutes at 4° C. The immunoprecipitate was collected using MPC-E magnetic concentrator (Dynal, Norway), and washed four times with PBS. […] Western blotting was performed using Odyssey Infrared imaging system (Li-Cor). Mature GDF8 was detected using biotinylated goat anti-myostatin antibody (R&D systems, Cat# BAF788). […] It is known that mature GDF8 in the serum binds to many inhibitory proteins such as propeptide, FLRG, and GASAP1 (Hill et al. (2002) The myostatin propeptide and the follistatin-related gene are inhibitory binding proteins of myostatin in normal serum. J. Biol. Chem. 277: 40735-40741. Hill et al. (2003) Regulation of myostatin in vivo by growth and differentiation factor-associated serum protein-1: a novel protein with protease inhibitor and follistatin domains. Mol. Endocrin. 17(6): 1144-1154). […] Such non-competitive neutralizing antibodies would be advantageous in vivo.

mature GDF8 = target: T4, mature GDF8; test: immunoprecipitation from 293T conditioned medium, western blot
Description: An immunoprecipitation study was conducted to test the binding of myostatin antibodies to mature GDF8 and mature GDF8/propeptide complex. 293T cells were transfected with GDF-8 expression construct. Conditioned media was harvested 7 days after transfection, which contained mature GDF8 and latent complex. 100 μl conditioned media was incubated with 10 μg myostatin antibodies for 16 hours at 4° C. Protein A Dynabeads (Dynal, Norway) were added and incubated for 90 minutes at 4° C. The immunoprecipitate was collected using MPC-E magnetic concentrator (Dynal, Norway), and washed four times with PBS. […] Western blotting was performed using Odyssey infrared imaging system (Li-Cor). Mature GDF8 and unprocessed GDF8 were detected using goat anti-myostatin antibody (R&D systems, Cat# AF788). Rabbit anti-propeptide polyclonal antibody (made in-house) was used to detect both propeptide and unprocessed GDF8. […] No other antibodies immunoprecipitated mature GDF8, propeptide, or unprocessed GDF8. Lane 4 is the 1/10 medium loading control, and lane 7 is immunoprecipitation control with medium only.

binding result (peptide 1) | binding result (peptide 5) | binding result [1] | binding result (mature GDF8) | Binder
binds | binds | binds | binds | 2-112-1 (antibody, V domains shown, Full-length deduced chains) VH: EVQLLESGGGLIQPGGSLRLSCAASGFTFSSFAMSWVRQAPGKGLEWVSTISGSGGYTFYADSVKGRFTISRDNSKNTLYLQMNSLRAEDTAVYYCAKDGRYNWNYGAFDIWGQGTMVTVSS VL: EIVMTQSPATLSVSPGERATLSCRASQSVSSNLAWYQQKPGQAPRLLIYGASTRATGFPARFSGSGSGTEFTLTISSLQSEDFAIYYCQQYNNWPLTFGGGTKVEIKR
binds | binds | binds | binds | 2-43-1 (antibody, V domains shown, Full-length deduced chains) VH: EVQLLESGGGLVQPGGSLRLSCAASGFTFSSYAMSWVRQAPGKGLEWVSAISGSGGSTFYADSVTGRFTISRDNSKNTLFLQLNSLRAEDTAVYHCAKDGRFNWNYGASDIWGQGTMVTVSS VL: EIVMTQSPATLSVSPGERATLSCRTSQSVSSNLAWYQQKPGQAPRLLIYGASTRATGIPARFSGSGSGTEFTLTISSLQSEDFAVYYCQQYNNWPLTFGGGTKVEIKR
binds | binds | binds | binds | 2-177-1 (antibody, V domains shown, Full-length deduced chains) VH: EVQLLESGGGLIQPGGSLRLSCAASGFTFSSFAMSWVRQAPGKGLEWVSTISGSGGSTYYADFVKGRFTISRDNSKNTLYLQMNSLRAEDTAVYYCAKDGRYNWNYGAFDIWGQGTMVTVSS VL: EIVMTQSPATLSVSPGERATLSCRASQSVRSNLAWFQQKPGQAPRLLIYGASTRATGIPARFSGSGSGTEFTLTISSLQSEDFAVYYCQQYNNWPLTFGGGTKVEIKR

Reference: US20060263354A1 (Amgen, published 2006)
